Experimental data from EP4585618A1 (Jiangsu Hengrui Pharmaceuticals Co., Ltd., dated 2025).

What was measured:
[1] = molecular target: T1, His-tagged ILT4 protein extracellular domain: ILT4-His (human, UniProt Q8N423 22-460); test: SPR (Biacore), antibody captured on Protein A chip, ILT4-His as analyte, 1:1 model
T1 construct: Expressed in 293 cells; also called human ILT4-His protein

[2] = molecular target: T2, LILRB5-His (Acro, CDC-H5220) (human, UniProt O75023 24-458, limits assumed); test: ELISA, coated protein 1 µg/mL
T2 construct: Bought protein. 'Human' stands at the head of the list of coated proteins; not shown: His tag

[3] = molecular target: T3, LILRA5-His (Acro, LI5-H82E1) (human, UniProt A6NI73 42-268); test: ELISA, coated protein 1 µg/mL
T3 construct: Bought protein. 'Human' stands at the head of the list of coated proteins; not shown: His tag

[4] = molecular target: T4, His-tagged ILT3 protein extracellular domain: ILT3-His (human, UniProt Q8NHJ6 22-259); test: ELISA, coated protein 1 µg/mL
T4 construct: The entry is the whole construct, with the His tag

[5] = molecular target: T5, LILRA4-His (SinoBiological, 16058-H08H) (human, UniProt P59901 24-446); test: ELISA, coated protein 1 µg/mL
T5 construct: Bought protein. 'Human' stands at the head of the list of coated proteins; not shown: His tag

[6] = molecular target: T6, LILRA3-His (Acro, LI3-H82E0) (human, UniProt Q8N6C8 24-439); test: ELISA, coated protein 1 µg/mL
T6 construct: Bought protein. 'Human' stands at the head of the list of coated proteins; not shown: His tag

[7] = molecular target: T7, LILRA2-His (Acro, LI2-H82E9) (human, UniProt Q8N149 24-449); test: ELISA, coated protein 1 µg/mL
T7 construct: Bought protein. 'Human' stands at the head of the list of coated proteins; not shown: His tag

[8] = molecular target: T8, LILRA6-His (Acro, LI6-H82E2) (human, UniProt Q6PI73 24-447); test: ELISA, coated protein 1 µg/mL
T8 construct: Bought protein. 'Human' stands at the head of the list of coated proteins; not shown: His tag

[9] = molecular target: T9, LILRA1-His (Acro, LI1-H82E8) (human, UniProt O75019 17-461); test: ELISA, coated protein 1 µg/mL
T9 construct: Bought protein. 'Human' stands at the head of the list of coated proteins; not shown: His tag

[10] = molecular target: T10, His-tagged ILT2 protein extracellular domain: ILT2-His (human, UniProt Q8NHL6 24-461); test: ELISA, coated protein 1 µg/mL
T10 construct: The entry is the whole construct, with the His tag; also called human ILT2 protein

[11] = molecular target: T2, LILRB5-His (Acro, CDC-H5220); test: ELISA, coated protein 1 µg/mL, antibody 10 µg/mL
[12] = molecular target: T3, LILRA5-His (Acro, LI5-H82E1); test: ELISA, coated protein 1 µg/mL, antibody 10 µg/mL
[13] = molecular target: T4, His-tagged ILT3 protein extracellular …; test: ELISA, coated protein 1 µg/mL, antibody 10 µg/mL
[14] = molecular target: T5, LILRA4-His (SinoBiological, 16058-H08H); test: ELISA, coated protein 1 µg/mL, antibody 10 µg/mL
[15] = molecular target: T6, LILRA3-His (Acro, LI3-H82E0); test: ELISA, coated protein 1 µg/mL, antibody 10 µg/mL
[16] = molecular target: T7, LILRA2-His (Acro, LI2-H82E9); test: ELISA, coated protein 1 µg/mL, antibody 10 µg/mL
[17] = molecular target: T8, LILRA6-His (Acro, LI6-H82E2); test: ELISA, coated protein 1 µg/mL, antibody 10 µg/mL
[18] = molecular target: T9, LILRA1-His (Acro, LI1-H82E8); test: ELISA, coated protein 1 µg/mL, antibody 10 µg/mL
[19] = molecular target: T10, His-tagged ILT2 protein extracellular …; test: ELISA, coated protein 1 µg/mL, antibody 10 µg/mL
[20] = molecular target: T1, His-tagged ILT4 protein extracellular …; test: ELISA, coated protein 1 µg/mL, antibody 10 µg/mL
[21] = molecular target: T1, His-tagged ILT4 protein extracellular …; test: ELISA, coated ILT4-His 1 µg/mL; Assay 5
[22] = molecular target: T11, full-length human ILT4 protein overexpressed on cells (human, UniProt Q8N423 22-597); test: flow cytometry competition on CHO-S/ILT4 cells; competitor CF647-labelled HLA-G tetramer; Assay 4
T11 construct: also called CHO-S/ILT4; ILT4 stably transfected cell strain

[23] = molecular target: T11, full-length human ILT4 protein …; test: flow cytometry competition on CHO-S/ILT4 cells; competitor CF647-labelled HLA-G tetramer; Assay 3
[24] = molecular target: T11, full-length human ILT4 protein …; test: flow cytometry competition on CHO-S/ILT4 cells; competitor CF647-labelled HLA-G tetramer; Assay 2

T3 sequence (A6NI73 42-268 limits assumed): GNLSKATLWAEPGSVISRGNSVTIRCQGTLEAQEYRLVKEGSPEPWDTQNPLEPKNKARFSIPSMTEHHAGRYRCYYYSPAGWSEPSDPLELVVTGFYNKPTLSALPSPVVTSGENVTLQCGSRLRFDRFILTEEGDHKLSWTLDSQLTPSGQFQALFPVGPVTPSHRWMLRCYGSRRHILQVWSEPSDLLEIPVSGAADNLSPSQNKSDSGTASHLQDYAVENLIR
T11 sequence (Q8N423 other isoform, or with tags, fused parts or gaps limits assumed): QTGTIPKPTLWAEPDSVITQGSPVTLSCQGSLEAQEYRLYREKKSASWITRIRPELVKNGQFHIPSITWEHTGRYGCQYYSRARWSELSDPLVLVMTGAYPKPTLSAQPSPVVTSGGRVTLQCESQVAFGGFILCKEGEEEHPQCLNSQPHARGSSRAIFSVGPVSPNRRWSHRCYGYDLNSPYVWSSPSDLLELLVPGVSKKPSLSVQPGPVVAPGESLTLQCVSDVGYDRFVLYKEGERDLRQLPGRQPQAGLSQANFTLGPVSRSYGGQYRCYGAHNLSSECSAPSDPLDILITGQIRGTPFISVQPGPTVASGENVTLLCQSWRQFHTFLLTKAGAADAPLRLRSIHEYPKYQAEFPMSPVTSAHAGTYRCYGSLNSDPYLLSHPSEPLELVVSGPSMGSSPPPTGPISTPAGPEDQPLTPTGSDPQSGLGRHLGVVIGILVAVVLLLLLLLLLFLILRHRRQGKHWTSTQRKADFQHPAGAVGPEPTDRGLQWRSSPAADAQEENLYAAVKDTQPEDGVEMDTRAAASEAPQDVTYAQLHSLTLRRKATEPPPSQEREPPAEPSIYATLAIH
T9 sequence (O75019 17-461 limits assumed): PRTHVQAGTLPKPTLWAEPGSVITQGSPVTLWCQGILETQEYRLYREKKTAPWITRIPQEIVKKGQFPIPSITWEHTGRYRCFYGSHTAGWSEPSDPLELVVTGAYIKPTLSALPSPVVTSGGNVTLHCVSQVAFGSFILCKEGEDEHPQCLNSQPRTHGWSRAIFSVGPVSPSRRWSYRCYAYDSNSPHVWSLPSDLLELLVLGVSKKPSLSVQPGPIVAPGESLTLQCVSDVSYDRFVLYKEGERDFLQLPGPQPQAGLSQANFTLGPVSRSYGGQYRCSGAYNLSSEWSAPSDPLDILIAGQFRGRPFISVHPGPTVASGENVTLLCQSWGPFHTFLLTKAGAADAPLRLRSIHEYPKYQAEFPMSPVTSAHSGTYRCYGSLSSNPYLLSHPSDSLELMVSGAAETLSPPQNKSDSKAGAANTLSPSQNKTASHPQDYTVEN
T2 sequence (O75023 24-458 limits assumed): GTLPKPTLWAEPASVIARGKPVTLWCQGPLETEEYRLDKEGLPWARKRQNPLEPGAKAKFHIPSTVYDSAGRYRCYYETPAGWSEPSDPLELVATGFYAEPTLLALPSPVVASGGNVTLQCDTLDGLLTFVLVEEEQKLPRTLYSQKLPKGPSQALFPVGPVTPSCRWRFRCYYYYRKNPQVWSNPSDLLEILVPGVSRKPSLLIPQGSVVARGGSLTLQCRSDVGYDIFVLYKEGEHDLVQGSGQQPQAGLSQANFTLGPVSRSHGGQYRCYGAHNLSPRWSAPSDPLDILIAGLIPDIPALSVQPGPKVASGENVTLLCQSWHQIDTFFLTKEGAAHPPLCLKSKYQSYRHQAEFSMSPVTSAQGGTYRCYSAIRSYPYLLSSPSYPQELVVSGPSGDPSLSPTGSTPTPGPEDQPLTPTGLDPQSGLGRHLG
T8 sequence (Q6PI73 24-447 limits assumed): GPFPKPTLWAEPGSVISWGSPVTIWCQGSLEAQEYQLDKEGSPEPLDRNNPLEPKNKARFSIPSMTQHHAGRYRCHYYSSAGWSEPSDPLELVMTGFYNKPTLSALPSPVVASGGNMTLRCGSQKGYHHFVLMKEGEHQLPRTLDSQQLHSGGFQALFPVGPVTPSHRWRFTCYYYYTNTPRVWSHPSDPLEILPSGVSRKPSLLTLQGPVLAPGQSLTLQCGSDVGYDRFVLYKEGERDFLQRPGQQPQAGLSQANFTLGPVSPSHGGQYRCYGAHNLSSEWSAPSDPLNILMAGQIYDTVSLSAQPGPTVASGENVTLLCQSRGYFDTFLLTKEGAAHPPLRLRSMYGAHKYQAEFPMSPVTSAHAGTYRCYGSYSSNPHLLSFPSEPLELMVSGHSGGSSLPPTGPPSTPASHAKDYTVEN
T6 sequence (Q8N6C8 24-439 limits assumed): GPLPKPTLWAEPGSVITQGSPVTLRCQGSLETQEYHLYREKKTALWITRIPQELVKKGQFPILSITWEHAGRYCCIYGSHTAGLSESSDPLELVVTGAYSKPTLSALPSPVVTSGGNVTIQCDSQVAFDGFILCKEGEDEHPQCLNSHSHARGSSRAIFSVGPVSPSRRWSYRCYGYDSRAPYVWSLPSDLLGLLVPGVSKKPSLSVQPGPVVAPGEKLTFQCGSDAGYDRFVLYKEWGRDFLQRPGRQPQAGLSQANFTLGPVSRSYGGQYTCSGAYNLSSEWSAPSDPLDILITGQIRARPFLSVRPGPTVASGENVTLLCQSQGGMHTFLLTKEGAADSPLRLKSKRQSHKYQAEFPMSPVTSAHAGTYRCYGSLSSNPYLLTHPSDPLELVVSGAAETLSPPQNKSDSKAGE
T1 sequence (Q8N423 other isoform, or with tags, fused parts or gaps limits assumed): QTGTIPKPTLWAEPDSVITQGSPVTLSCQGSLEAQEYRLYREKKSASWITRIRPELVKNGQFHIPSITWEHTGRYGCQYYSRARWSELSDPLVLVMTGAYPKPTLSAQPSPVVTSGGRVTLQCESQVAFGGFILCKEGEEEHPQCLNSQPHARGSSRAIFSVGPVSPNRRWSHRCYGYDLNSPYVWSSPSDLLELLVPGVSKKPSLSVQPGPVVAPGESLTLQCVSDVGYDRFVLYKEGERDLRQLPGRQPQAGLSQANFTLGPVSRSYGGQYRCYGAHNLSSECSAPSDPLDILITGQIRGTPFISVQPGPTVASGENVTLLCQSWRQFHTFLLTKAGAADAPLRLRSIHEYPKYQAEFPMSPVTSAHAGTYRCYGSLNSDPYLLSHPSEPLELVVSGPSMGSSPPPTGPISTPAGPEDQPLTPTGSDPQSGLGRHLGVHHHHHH
T7 sequence (Q8N149 24-449 limits assumed): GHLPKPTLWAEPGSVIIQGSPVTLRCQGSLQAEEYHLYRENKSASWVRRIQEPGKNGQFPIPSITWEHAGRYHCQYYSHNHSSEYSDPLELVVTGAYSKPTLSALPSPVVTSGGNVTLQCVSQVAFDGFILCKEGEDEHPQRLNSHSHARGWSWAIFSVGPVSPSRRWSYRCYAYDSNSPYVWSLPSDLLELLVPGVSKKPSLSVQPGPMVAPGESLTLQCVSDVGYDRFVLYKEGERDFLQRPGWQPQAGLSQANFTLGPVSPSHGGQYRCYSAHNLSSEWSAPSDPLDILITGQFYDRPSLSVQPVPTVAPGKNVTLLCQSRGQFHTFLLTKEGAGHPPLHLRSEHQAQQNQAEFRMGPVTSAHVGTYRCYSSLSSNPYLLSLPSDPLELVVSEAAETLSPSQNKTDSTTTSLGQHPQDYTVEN
T10 sequence (Q8NHL6 other isoform, or with tags, fused parts or gaps): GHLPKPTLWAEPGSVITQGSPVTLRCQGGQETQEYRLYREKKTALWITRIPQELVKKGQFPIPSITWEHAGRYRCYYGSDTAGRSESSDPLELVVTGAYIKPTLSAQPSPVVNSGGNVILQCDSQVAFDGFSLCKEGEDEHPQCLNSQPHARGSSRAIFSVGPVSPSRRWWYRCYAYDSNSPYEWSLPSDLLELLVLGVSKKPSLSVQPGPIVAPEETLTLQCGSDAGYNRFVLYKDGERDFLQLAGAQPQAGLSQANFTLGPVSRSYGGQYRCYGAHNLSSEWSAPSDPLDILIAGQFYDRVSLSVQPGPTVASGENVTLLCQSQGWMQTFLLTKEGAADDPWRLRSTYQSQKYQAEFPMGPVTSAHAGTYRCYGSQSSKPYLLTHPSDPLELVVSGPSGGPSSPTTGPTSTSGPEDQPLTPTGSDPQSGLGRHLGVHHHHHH
T5 sequence (P59901 24-446 limits assumed): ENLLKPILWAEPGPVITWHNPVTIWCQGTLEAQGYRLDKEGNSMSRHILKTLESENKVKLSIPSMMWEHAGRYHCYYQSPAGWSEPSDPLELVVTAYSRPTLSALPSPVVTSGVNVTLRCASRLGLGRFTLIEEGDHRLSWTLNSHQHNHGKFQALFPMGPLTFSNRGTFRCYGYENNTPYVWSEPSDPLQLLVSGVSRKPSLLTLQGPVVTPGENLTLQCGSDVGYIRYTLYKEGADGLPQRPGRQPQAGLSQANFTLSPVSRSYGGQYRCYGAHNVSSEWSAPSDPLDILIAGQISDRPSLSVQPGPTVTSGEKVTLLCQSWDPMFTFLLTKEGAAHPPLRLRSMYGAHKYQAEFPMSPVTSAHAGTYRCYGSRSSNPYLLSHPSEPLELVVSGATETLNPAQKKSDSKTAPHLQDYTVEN

Binder	Kd [1] [nM]	koff [1] [s⁻¹]	kon [1] [M⁻¹ s⁻¹]	binding result [2]	binding result [3]	binding result [4]	binding result [5]	binding result [6]	binding result [7]	binding result [8]	binding result [9]	binding result [10]	absorbance at 450 nm [11] [absorbance at 450 nm]	absorbance at 450 nm [12] [absorbance at 450 nm]	absorbance at 450 nm [13] [absorbance at 450 nm]	absorbance at 450 nm [14] [absorbance at 450 nm]	absorbance at 450 nm [15] [absorbance at 450 nm]	absorbance at 450 nm [16] [absorbance at 450 nm]	absorbance at 450 nm [17] [absorbance at 450 nm]	absorbance at 450 nm [18] [absorbance at 450 nm]	further results
humanized antibody huP2-E8 (antibody, human IgG4 S228P, kappa, F234A L235A, V domains shown, Full chains; also called P2-E8H4L1) VH: EVQLVESGGGLVKPGGSLRLSCAASGFTFSDYGIHWVRQAPGKGLEWVAYISSGSSIHNYADTVKGRFTISRDNAKNSLYLQMNSLRAEDTAVYYCARGPNYYGSSYLLVYWGQGTLVTVSS VL: DIQMTQSPSSLSASVGDRVTITCKASQDVNIAVAWYQQKPGKAPKLLIYSASYRYTGVPSRFSGSGSGTDFTFTISSLQPEDIATYYCQQHYNIPWTFGGGTKVEIKR	0.839	0.000186	222000	no binding (tested: 10 µg/mL)	no binding (tested: 10 µg/mL)	no binding (tested: 10 µg/mL)	no binding (tested: 10 µg/mL)	no binding (tested: 10 µg/mL)	no binding (tested: 10 µg/mL)	no binding (tested: 10 µg/mL)	no binding (tested: 10 µg/mL)	no binding (tested: 10 µg/mL)	0.0489	0.0467	0.063	0.0504	0.0467	0.0516	0.0461	0.0483	absorbance at 450 nm [19]: 0.0569 absorbance at 450 nm; absorbance at 450 nm [20]: 0.954 absorbance at 450 nm
chimeric antibody ChP2-C2 (antibody, human IgG4 S228P, kappa, F234A L235A, V domains shown, Murine variable regions with hIgG4(LALA) and CL constant regions; also called M P2-C2) VH: QVQLKQSGPGLVQPSQSLSITCTVSGFSLTSYGVHWVRQSPGKGLEWLGVIWSGGHTDLNAAFISRLSINKDNSKSQVFFKMNSLQGDDTAIYYCARNGYGGCLDYWGQGTTLTVSS VL: DIVMTQSHKFMSTSVGDRVSITCKAGQDVSIAVAWYQQKPGQSPQLLIYSASYRYTGVPDRFTGSGSGTDFTFAISSVQAEDLAVYYCQQYYSIPPSFGAGTKLEIKR																					EC50 [21]: 0.0493 µg/mL; Top [21]: 1.16 absorbance at 450 nm
fully human-derived antibody P2m (antibody, human IgG1, kappa, L234A L235A, V domains shown, Full chains) VH: QVQLVQSGAEVKKPGSSVKVSCKASGYTFTSYDISWVRQAPGQGLEWMGGIIPIFGTANYAQKFQGRVTITADESTSTAYMELSSLRSEDTAVYYCTAGIFLATAYWGQGTLVTVSS VL: DIQMTQSPSSMSASVGDRVTISCQASQDIQNYLNWYQQRPGQAPKLLIYDASTLETGVPSRFSGSGSGTYFTLTISSLQPEDVATYYCQQYENVPITFGQGTRLEIKR	0.0433	8.78e-05	2.03e+06	no binding (tested: 10 µg/mL)	no binding (tested: 10 µg/mL)	no binding (tested: 10 µg/mL)	no binding (tested: 10 µg/mL)	no binding (tested: 10 µg/mL)	no binding (tested: 10 µg/mL)	no binding (tested: 10 µg/mL)	no binding (tested: 10 µg/mL)	no binding (tested: 10 µg/mL)	0.0663	0.0459	0.0671	0.0543	0.0468	0.0448	0.0453	0.0469	absorbance at 450 nm [19]: 0.0517 absorbance at 450 nm; absorbance at 450 nm [20]: 1.87 absorbance at 450 nm; IC50 [22]: 0.033 µg/mL
chimeric antibody ChP2-B9 (antibody, human IgG4 S228P, kappa, F234A L235A, V domains shown, Murine variable regions with hIgG4(LALA) and CL constant regions; also called M P2-B9) VH: EVQLQQSGPELVKPGASVKISCKASGYTFTDYFMNWVKLSHGKSLEWIGDINPNNGGTSYNQRFKDKVTLTVDKSSSTAYMELRSLTSDSSAVYFCARNGYYDSNYLSYFDVWGTGTTVTVSS VL: DIQMTQSPASLSVSVGETVTITCRASENIYSNLAWYQQKQGKSPQLLVYGATNLADGVPSRFSGSGSGTQYSLKINSLQSEDFGSYYCQHFWDTPYTFGGGTKLEIKR																					EC50 [21]: 0.0487 µg/mL; Top [21]: 1.53 absorbance at 450 nm
chimeric antibody ChP2-E10 (antibody, human IgG4 S228P, kappa, F234A L235A, V domains shown, Murine variable regions with hIgG4(LALA) and CL constant regions; also called M P2-E10) VH: DVQLQESGPGLVKPSQSLSLTCSVTGYSITSGYYWNWIRQFPGNKLEWMGYMSYEGTNNSNPSLKNRISITRDTSKNQFFLKLNSVTTEDTARYYCARERAYYYGTLGAMDYWGQGTSVTVSS VL: DIQMTQSPASLSVSVGETVTITCRASENIYSNLAWYQQKQGKSPQLLVYAATNLADGVPSRFSGSGSGTQYSLKINSMQSEDFGSYYCQHFWDTPFTFGSGTKLEIKR																					EC50 [21]: 0.0658 µg/mL; Top [21]: 1.65 absorbance at 450 nm
humanized antibody huP2-C6 (antibody, human IgG1, kappa, L234A L235A, V domains shown, Full chains; also called P2-C6H7L1) VH: EVQLVQSGAEVKKPGASVKVSCKASGYTFTDYYIHWVRQAPGQGLEWMGYIYPDTGYSGYNQKFKGRVTMTVDKSTSTAYMELRSLRSDDTAVYYCTRRGDYSGVHFDYWGQGTTVTVSS VL: DIVLTQSPDSLAVSLGERATINCRASESVNNYGVGFLHWYQQKPGQPPKLLIYRASTLESGIPDRFSGSGSGTDFTLTISSLQAEDVAVYYCQHSYKDPPWTFGGGTKVEIKR	0.0543	6.58e-05	1.21e+06	no binding (tested: 10 µg/mL)	no binding (tested: 10 µg/mL)	no binding (tested: 10 µg/mL)	no binding (tested: 10 µg/mL)	no binding (tested: 10 µg/mL)	no binding (tested: 10 µg/mL)	no binding (tested: 10 µg/mL)	no binding (tested: 10 µg/mL)	no binding (tested: 10 µg/mL)	0.0563	0.0598	0.149	0.0605	0.0613	0.0565	0.0606	0.0535	absorbance at 450 nm [19]: 0.0621 absorbance at 450 nm; absorbance at 450 nm [20]: 2.69 absorbance at 450 nm; IC50 [23]: 0.072 µg/mL
humanized antibody huP2-G9 (antibody, human IgG1, kappa, L234A L235A, V domains shown, Full chains; also called P2-G9H1L2) VH: EVQLQESGPGLVKPSQTLSLTCTVSGSSITSGYYWNWIRQHPGKGLEWIGYLSYDGSNNYNPSLKNLVTISRDTSKNQFSLKLSSVTAADTAVYYCAREGAHYSGTLSWFAYWGQGTLVTVSS VL: DIQMTQSPSSLSASVGDRVTITCRASENIYSNLAWYQQKPGKSPKLLVYAATNLADGVPSRFSGSGSGTDYTLTISSLQPEDFATYYCQHFWDTPYTFGGGTKVEIKR	0.109	0.000109	999000	no binding (tested: 10 µg/mL)	no binding (tested: 10 µg/mL)	no binding (tested: 10 µg/mL)	no binding (tested: 10 µg/mL)	no binding (tested: 10 µg/mL)	no binding (tested: 10 µg/mL)	no binding (tested: 10 µg/mL)	no binding (tested: 10 µg/mL)	no binding (tested: 10 µg/mL)	0.0533	0.0441	0.0564	0.0674	0.0461	0.0759	0.0449	0.0457	absorbance at 450 nm [19]: 0.0541 absorbance at 450 nm; absorbance at 450 nm [20]: 1.77 absorbance at 450 nm; IC50 [24]: 0.085 µg/mL
